In patent publication US20140087995A1 (published 2014):
Numbered stars: 1 amine (or outer) side, 2 acyl side, 3 side chain; on linkers, the order of the positions; unused ones are H or OH. Bridge positions count the residues as written; N and C are the ends. Side chains are listed from the residue outwards. Ends that are not written are not given here. * marks the point of attachment. C20 diacid = O=C(O)CCCCCCCCCCCCCCCCCCC(=O)*; C18 diacid = O=C(O)CCCCCCCCCCCCCCCCC(=O)*; γGlu = O=C(O)[C@H](CCC(=O)[*:2])N[*:1]; C14 diacid = O=C(O)CCCCCCCCCCCCC(=O)*

T1: human calcitonin receptor (human, UniProt P30988 25-474)
T1 sequence (looked up): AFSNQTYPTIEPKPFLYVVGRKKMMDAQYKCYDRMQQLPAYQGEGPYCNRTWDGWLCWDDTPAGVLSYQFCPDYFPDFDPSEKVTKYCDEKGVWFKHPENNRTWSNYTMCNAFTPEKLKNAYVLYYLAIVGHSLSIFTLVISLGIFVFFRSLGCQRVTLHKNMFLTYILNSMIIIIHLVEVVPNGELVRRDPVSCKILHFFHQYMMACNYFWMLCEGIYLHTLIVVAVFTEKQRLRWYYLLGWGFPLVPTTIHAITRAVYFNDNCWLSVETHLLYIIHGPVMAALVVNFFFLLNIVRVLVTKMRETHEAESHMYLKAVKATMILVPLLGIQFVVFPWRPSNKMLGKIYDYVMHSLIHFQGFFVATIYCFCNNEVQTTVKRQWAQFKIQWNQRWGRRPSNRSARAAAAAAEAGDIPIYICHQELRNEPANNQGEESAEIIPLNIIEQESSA


target: T1, human calcitonin receptor; assay: cell-based or functional assay

hCTR funct. EC50 (pM)	Binder
1450	K([γGlu-C20 diacid])CNTATCATQRLAEFLRHSSPNFGAIPSSTNVGPHTY-NH2 (disulfide 2-7 (inferred), Synthetic)
843	K([γGlu-γGlu-C20 diacid])CNTATCATQRLADFLRHSSPNFGAIPSSTNVGPETY-NH2 (disulfide 2-7 (inferred), Synthetic)
7280	K([γGlu-γGlu-C20 diacid])CNTATCATQRLADFLRHSSPNFGAIPSSTNVGPRTY-NH2 (disulfide 2-7 (inferred), Synthetic; also called compound 130)
8160	K([γGlu-γGlu-C20 diacid])CNTATCATQRLAEFLRHSSPNFGAIPSSTNVGPRTY-NH2 (disulfide 2-7 (inferred), Synthetic; also called compound 110)
7430	K([γGlu-γGlu-C20 diacid])CNTATCATQRLAEFLRHSSPNFGAIPSSTNVGRETY-NH2 (disulfide 2-7 (inferred), Synthetic)
887	K([γGlu-γGlu-C20 diacid])CNTATCATQRLASFLRHSSPNFGAIPSSTNVGPETY-NH2 (disulfide 2-7 (inferred), Synthetic; also called compound 120)

Continued, binder first:

Binder	hCTR funct. EC50 (pM)
K([γGlu-C20 diacid])CNTATCATQRLAEFLRHSSPNFGAIPSSTNVGPRTY-NH2 (disulfide 2-7 (inferred), Synthetic)	6380
K([γGlu-C14 diacid])CNTATCATQRLANFLRHSSPNFGAIPSSTNVGHNTY-NH2 (disulfide 2-7 (inferred), Synthetic) [N^ε1-[(4S)-4-carboxy-4-(13-carboxytridecanoylamino)butanoyl]-[Arg17,Pro21,Pro27,His34]-h-amylin]	1090
K([γGlu-C20 diacid])CNTATCATQRLAEFLRHSSPNFGAIPSSTNVGRETY-NH2 (disulfide 2-7 (inferred), Synthetic)	2740
K([γGlu-C20 diacid])CNTATCATQRLADFLRHSSPNFGAIPSSTNVGPRTY-NH2 (disulfide 2-7 (inferred), Synthetic)	3640
K([γGlu-C18 diacid])CNTATCATQRLANFLRHSSPNFGAIPSSTNVGHNTY-NH2 (disulfide 2-7 (inferred), Synthetic) [N^ε1-[(4S)-4-carboxy-4-(17-carboxyheptadecanoylamino)butanoyl]-[Arg17,Pro21,Pro27,His34]-h-amylin]	5850
K([γGlu-C20 diacid])CNTATCATQRLAEFLRHSSPNFGAIPSSTNVGPETY-NH2 (disulfide 2-7 (inferred), Synthetic)	841
